Columns and labels:
[1] = biological target: T1, TCL1 peptide on HLA-A*02:01 (human); experiment: multimer staining
T1 peptide: SLLPIMWQLY

[2] = biological target: T2, TCL1 70-79, glycine replacement at position 10 peptide on HLA-A*02:01 (human); experiment: cytokine release
T2 peptide: SLLPIMWQLG

[3] = biological target: T3, TCL1 70-79, glycine replacement at position 5 peptide on HLA-A*02:01 (human); experiment: cytokine release
T3 peptide: SLLPGMWQLY

[4] = biological target: T4, TCL1 70-79, alanine replacement at position 6 peptide on HLA-A*02:01 (human); experiment: cytokine release
T4 peptide: SLLPIAWQLY

[5] = biological target: T5, TCL1 70-79, glycine replacement at position 3 peptide on HLA-A*02:01 (human); experiment: cytokine release
T5 peptide: SLGPIMWQLY

[6] = biological target: T6, TCL1 70-79, alanine replacement at position 9 peptide on HLA-A*02:01 (human); experiment: cytokine release
T6 peptide: SLLPIMWQAY

[7] = biological target: T7, TCL1 70-79, glycine replacement at position 6 peptide on HLA-A*02:01 (human); experiment: cytokine release
T7 peptide: SLLPIGWQLY

[8] = biological target: T8, TCL1 70-79, glycine replacement at position 2 peptide on HLA-A*02:01 (human); experiment: cytokine release
T8 peptide: SGLPIMWQLY

[9] = biological target: T9, TCL1 70-79, glycine replacement at position 8 peptide on HLA-A*02:01 (human); experiment: cytokine release
T9 peptide: SLLPIMWGLY

[10] = biological target: T10, TCL1 70-79, glycine replacement at position 7 peptide on HLA-A*02:01 (human); experiment: cytokine release
T10 peptide: SLLPIMGQLY

[11] = biological target: T11, TCL1 70-79, alanine replacement at position 3 peptide on HLA-A*02:01 (human); experiment: cytokine release
T11 peptide: SLAPIMWQLY

[12] = biological target: T12, TCL1 70-79, alanine replacement at position 7 peptide on HLA-A*02:01 (human); experiment: cytokine release
T12 peptide: SLLPIMAQLY

[13] = biological target: T13, TCL1 70-79, glycine replacement at position 9 peptide on HLA-A*02:01 (human); experiment: cytokine release
T13 peptide: SLLPIMWQGY

[14] = biological target: T14, TCL1 70-79, alanine replacement at position 8 peptide on HLA-A*02:01 (human); experiment: cytokine release
T14 peptide: SLLPIMWALY

[15] = biological target: T15, TCL1 70-79, alanine replacement at position 10 peptide on HLA-A*02:01 (human); experiment: cytokine release
T15 peptide: SLLPIMWQLA

[16] = biological target: T16, TCL1 70-79, alanine replacement at position 5 peptide on HLA-A*02:01 (human); experiment: cytokine release
T16 peptide: SLLPAMWQLY

[17] = biological target: T17, TCL1 70-79, glycine replacement at position 1 peptide on HLA-A*02:01 (human); experiment: cytokine release
T17 peptide: GLLPIMWQLY

[18] = biological target: T18, TCL1 70-79, alanine replacement at position 4 peptide on HLA-A*02:01 (human); experiment: cytokine release
T18 peptide: SLLAIMWQLY

[19] = biological target: T19, TCL1 70-79, alanine replacement at position 1 peptide on HLA-A*02:01 (human); experiment: cytokine release
T19 peptide: ALLPIMWQLY

[20] = biological target: T20, TCL1 70-79, glycine replacement at position 4 peptide on HLA-A*02:01 (human); experiment: cytokine release
T20 peptide: SLLGIMWQLY

[21] = biological target: T21, TCL1 70-79, alanine replacement at position 2 peptide on HLA-A*02:01 (human); experiment: cytokine release
T21 peptide: SALPIMWQLY

B1: TCL1-TCR (TCR, V domains shown)
Valpha: GQSLEQPSEVTAVEGAIVQINCTYQTSGFYGLSWYQQHDGGAPTFLSYNGLDGLEETGRFSSFLSRSDSYGYLLLQELQMKDSASYFCLLGSGAGSYQLTFGKGTKLSVIP
Vbeta: DAGVTQSPTHLIKTRGQHVTLRCSPISGHKSVSWYQQVLGQGPQFIFQYYEKEERGRGNFPDRFSARQFPNYSSELNVNALLLGDSALYLCASSFTDGGTYEQYFGPGTRLTVT
B1: recognises [1]; recognises [2]; no recognition [3]. B1: no recognition [4]; no recognition [5]; no recognition [6]. B1: no recognition [7]; no recognition [8]; no recognition [9]. B1: no recognition [10]; no recognition [11]; no recognition [12]. B1: no recognition [13]; no recognition [14]; recognises [15]. B1: no recognition [16]; recognises [17]; no recognition [18]. B1: recognises [19]; no recognition [20]; no recognition [21].
